The target of test [1] is 1065 toxin (IPF_1065, RelE/ParE-like toxin), C-terminally His-tagged (Microcystis aeruginosa PCC 7806). The experiment in a line: SEC-MALS. In general terms: SEC sorts molecules by how far they enter the pores of the column.
The target in test [2] is 1067 antitoxin (IPF_1067, ParD-like antitoxin), C-terminally His-tagged (Microcystis aeruginosa PCC 7806). The experiment in a line: […]; 20 mM HEPES pH 7.4, 150 mM NaCl, room temperature.

As for “1067 antitoxin (IPF_1067), non-tagged, coexpressed with the 1065 toxin (natural protein)”, in test [1], the stoichiometry N (antitoxin per toxin) is 2.

What is called stoichiometry N is a count of units in the complex or per binding partner. With “1067 antitoxin (IPF_1067, ParD-like antitoxin), C-terminally His-tagged (natural protein)”, in test [2], the stoichiometry N amounted to 2.

Values taken from article PMC7935541.
